According to publication PMC7463755, “C7-Prenylation of Tryptophan-Containing Cyclic Dipeptides by 7-Dimethylallyl Tryptophan Synthase Significantly Increases the Anticancer and Antimicrobial Activities” (Molecules, 2020):

Assays:
Experiment in all cases: HPLC product formation, Michaelis-Menten
Type in all cases: biochemical, Aspergillus fumigatus
[1] = substrate: O=C1CNC(=O)[C@H](Cc2c[nH]c3ccccc23)N1; settings: 2 mM DMAPP, 5 mM CaCl2, 37 °C, prenyl acceptor
Text: (§1) HPLC product formation, Michaelis-Menten on 7-DMATS (7-dimethylallyl tryptophan synthase)

[2] = substrate: O=C1N[C@@H](Cc2c[nH]c3ccccc23)C(=O)N[C@H]1Cc1ccccc1; settings: 2 mM DMAPP, 5 mM CaCl2, 37 °C, prenyl acceptor
Text: as §1

[3] = substrate: C[C@@H]1NC(=O)[C@H](Cc2c[nH]c3ccccc23)NC1=O; settings: 2 mM DMAPP, 5 mM CaCl2, 37 °C, prenyl acceptor
Text: as §1

[4] = substrate: O=C1N[C@@H](Cc2c[nH]c3ccccc23)C(=O)N[C@H]1Cc1c[nH]c2ccccc12; settings: 2 mM DMAPP, 5 mM CaCl2, 37 °C, prenyl acceptor
Text: as §1

[5] = substrate: [H][C@@]12CCCN1C(=O)[C@H](Cc1c[nH]c3ccccc13)NC2=O; settings: 2 mM DMAPP, 5 mM CaCl2, 37 °C, prenyl acceptor
Text: as §1

[6] = substrate: CC(C)=CCOP(=O)(O)OP(=O)(O)O; settings: 1 mM 1a (cyclo-L-Trp-Gly), 5 mM CaCl2, 37 °C, prenyl donor
Text: as §1

[7] = substrate: O=C1N[C@@H](Cc2c[nH]c3ccccc23)C(=O)N[C@H]1Cc1ccc(O)cc1; settings: 2 mM DMAPP, 5 mM CaCl2, 37 °C, prenyl acceptor
Text: as §1

[8] = substrate: CC(C)C[C@@H]1NC(=O)[C@H](Cc2c[nH]c3ccccc23)NC1=O; settings: 2 mM DMAPP, 5 mM CaCl2, 37 °C, prenyl acceptor
Text: as §1

B1: 7-DMATS (7-dimethylallyl tryptophan synthase) (Aspergillus fumigatus Af293) (protein)
chain: MSIGAEIDSLVPAPPGLNGTAAGYPAKTQKELSNGDFDAHDGLSLAQLTPYDVLTAALPLPAPASSTGFWWRETGPVMSKLLAKANYPLYTHYKYLMLYHTHILPLLGPRPPLENSTHPSPSNAPWRSFLTDDFTPLEPSWNVNGNSEAQSTIRLGIEPIGFEAGAAADPFNQAAVTQFMHSYEATEVGATLTLFEHFRNDMFVGPETYAALRAKIPEGEHTTQSFLAFDLDAGRVTTKAYFFPILMSLKTGQSTTKVVSDSILHLALKSEVWGVQTIAAMSVMEAWIGSYGGAAKTEMISVDCVNEADSRIKIYVRMPHTSLRKVKEAYCLGGRLTDENTKEGLKLLDELWRTVFGIDDEDAELPQNSHRTAGTIFNFELRPGKWFPEPKVYLPVRHYCESDMQIASRLQTFFGRLGWHNMEKDYCKHLEDLFPHHPLSSSTGTHTFLSFSYKKQKGVYMTMYYNLRVYST
notes: recombinant, overproduced in E. coli and purified as in Kremer et al; vector pQE60 named
With B1 the Km [1] was 169.7 µM, the Vmax [1] was 0.145 µM/min and the kcat [1] was 0.131 s⁻¹. For the same protein, the kcat/Km [1] was 770 M⁻¹ s⁻¹, the Km [2] was 102.9 µM and the Vmax [2] was 0.0359 µM/min. The kcat [2] was 0.0323 s⁻¹, the kcat/Km [2] was 314 M⁻¹ s⁻¹ and the Km [3] was 867.8 µM. For the same protein, the Vmax [3] was 0.0141 µM/min, the kcat [3] was 0.0127 s⁻¹ and the kcat/Km [3] was 14.6 M⁻¹ s⁻¹. For the same protein, the Km [4] was 225.8 µM, the Vmax [4] was 0.0459 µM/min and the kcat [4] was 0.0413 s⁻¹. The kcat/Km [4] was 183 M⁻¹ s⁻¹, the Km [5] was 880.1 µM and the Vmax [5] was 0.0228 µM/min. The kcat [5] was 0.0205 s⁻¹, the kcat/Km [5] was 23.3 M⁻¹ s⁻¹ and the Km [6] was 79.6 µM. The Vmax [6] was 0.072 µM/min, the kcat [6] was 0.0693 s⁻¹ and the kcat/Km [6] was 871 M⁻¹ s⁻¹. For the same protein, the Km [7] was 562.4 µM, the Vmax [7] was 0.0515 µM/min and the kcat [7] was 0.0464 s⁻¹. For the same protein, the kcat/Km [7] was 82.4 M⁻¹ s⁻¹, the Km [8] was 823.2 µM and the Vmax [8] was 0.0654 µM/min. It also gave a kcat [8] of 0.0586 s⁻¹ and a kcat/Km [8] of 71.2 M⁻¹ s⁻¹.
